Assay [1] concerns the target T1, mouse FLT3L on CHO cells (mouse, UniProt P49772 27-232).
T1 construct: whole, on cells; also called cell surface mouse FLT3L
T1 sequence (looked up): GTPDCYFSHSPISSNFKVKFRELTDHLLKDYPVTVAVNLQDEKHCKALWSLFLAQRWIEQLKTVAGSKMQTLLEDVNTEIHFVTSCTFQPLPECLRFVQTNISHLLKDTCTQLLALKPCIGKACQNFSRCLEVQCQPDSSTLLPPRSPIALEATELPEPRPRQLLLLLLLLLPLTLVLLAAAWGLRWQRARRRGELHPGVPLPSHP
Kind of assay: flow cytometry on CHO cells expressing mouse FLT3L, anti-hu IgG-PE detection. Here is the method:
(§1) Consistent with this, cell surface binding to human, cyno, and mouse FLT3L was evaluated by transfecting Chinese hamster ovary (CHO) cells with the respective full-length protein for each species. Candidate clones were incubated with FLT3L-expressing cell lines for 1 hour at 4° C. before being washed twice to remove unbound antibody. Cells were then incubated with PE-labeled goat anti-hu IgG secondary detection pAb to quantitate bound antibody which was measured by flow cytometric analysis of PE signal. The huFLT3-Fc construct, on a hu IgG backbone, was used as a positive control reagent for FLT3L expression as it cross reacts with cyno and mouse, in addition to human ligand.
For orientation: In flow cytometry, cells or beads pass a laser one at a time.

In assay [2] the target is T2, human soluble FLT3L (recombinant huFLT3L) (human, UniProt P49771 27-184).
T2 sequence (looked up): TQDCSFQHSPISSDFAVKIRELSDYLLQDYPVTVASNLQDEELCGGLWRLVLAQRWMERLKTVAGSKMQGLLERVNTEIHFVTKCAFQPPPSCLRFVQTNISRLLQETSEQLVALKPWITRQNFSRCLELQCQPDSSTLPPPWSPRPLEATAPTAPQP
Kind of assay: cell-based or functional assay.

Assay [3] concerns the target cynomolgus monkey soluble FLT3L (cynomolgus monkey). The assay can be described thus: cell-based or functional assay.
Assay [4] deals with T3, recombinant human stem cell factor (SCF) (human, UniProt P21583 26-189).
T3 construct: also called huSCF; KIT-ligand
T3 sequence (P21583 26-189 limits assumed): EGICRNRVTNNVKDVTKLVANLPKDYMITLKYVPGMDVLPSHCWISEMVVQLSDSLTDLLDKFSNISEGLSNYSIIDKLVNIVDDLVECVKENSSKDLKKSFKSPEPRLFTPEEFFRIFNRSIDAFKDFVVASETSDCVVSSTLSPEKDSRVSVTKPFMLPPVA
Kind of assay: ELISA on coated recombinant human SCF. On the procedure: (§2) To test this, an ELISA plate was coated with 2 µg of recombinant human SCF or CSF1. After washing, the plate was blocked with 3% milk in Tris-Phosphate Buffered Saline (TPBS) and lead antibodies were added in serial (×2) dilution, starting at 50 µg/ml. After incubation, unbound antibody was removed by washing and bound antibody was detected using anti-human IgG-HRP in combination with TMB substrate for color development. Commercially available goat anti-SCF pAb and mouse anti-CSF1 mAb were used as positive binding controls.

The target of assay [5] is T4, human FLT3L on the cell surface (human, UniProt P49771 27-235).
T4 construct: whole, on cells; The assay field of each row says which cells carried it; also called cell-surface FLT3L; huFLT3L-expressing CHO cells
T4 sequence (looked up): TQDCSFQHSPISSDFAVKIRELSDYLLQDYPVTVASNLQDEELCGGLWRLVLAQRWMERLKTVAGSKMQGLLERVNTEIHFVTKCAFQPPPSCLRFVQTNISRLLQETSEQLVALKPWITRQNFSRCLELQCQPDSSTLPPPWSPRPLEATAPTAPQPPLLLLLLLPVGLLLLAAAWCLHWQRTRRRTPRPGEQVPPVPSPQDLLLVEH
Kind of assay: flow cytometry on CHO cells expressing full-length human FLT3L, PE anti-hu IgG. On the procedure:
as §1
(§3) As differences were apparent in the degree of receptor occupancy for each clone, both EC50 and max occupancy were noted (expressed as percent relative to FLT3-Fc) and taken into account in the final evaluation. Results are shown in Table 4 for human, cyno, and mouse FLT3L expressed in CHO cells.

Assay [6] has as its target T5, recombinant human colony stimulating factor 1 (CSF1) (human, UniProt P09603 33-190, limits assumed).
T5 construct: also called huCSF1; huCSF
T5 sequence (looked up): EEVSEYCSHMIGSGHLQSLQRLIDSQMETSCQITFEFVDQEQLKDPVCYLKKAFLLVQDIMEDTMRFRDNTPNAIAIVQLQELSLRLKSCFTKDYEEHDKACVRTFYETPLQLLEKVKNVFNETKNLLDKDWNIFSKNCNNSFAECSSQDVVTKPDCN
The assay can be described thus: ELISA on coated recombinant human CSF1. On the procedure:
as §2
For orientation: In an ELISA, binding on a coated surface is turned into a signal by an enzyme label.

The target in assay [7] is T6, cynomolgus monkey FLT3L on CHO cells (cynomolgus monkey).
T6 construct: whole, on cells; also called cell surface cyno FLT3L
The assay can be described thus: flow cytometry on CHO cells expressing full-length cyno FLT3L, PE anti-hu IgG. On the procedure: as §1, §3

Assay [8] concerns the target T2, human soluble FLT3L (recombinant …). The assay can be described thus: Biacore, Fab, kinetic (koff/kon). (Surface plasmon resonance follows binding to a sensor surface in real time, without labels.)
For assay [9] the target is unchanged. The assay can be described thus: Biacore, Fab.
Another assay concerns the target T7, mouse soluble FLT3L (mouse, UniProt P49772 27-189).
T7 sequence (looked up): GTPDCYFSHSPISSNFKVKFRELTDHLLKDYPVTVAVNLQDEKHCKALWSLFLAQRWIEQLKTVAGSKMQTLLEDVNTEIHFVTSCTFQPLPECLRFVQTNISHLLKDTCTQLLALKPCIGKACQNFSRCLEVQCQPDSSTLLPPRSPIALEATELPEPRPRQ
The assay can be described thus: cell-based or functional assay.

Assay [10] deals with T1, mouse FLT3L on CHO cells. Kind of assay: flow cytometry on CHO cells expressing full-length mouse FLT3L, PE anti-hu IgG. On the procedure: as §1, §3
Assay [11] concerns the target T2, human soluble FLT3L (recombinant …). Kind of assay: cell-based or functional assay. The source holds these as a separate data set.
Assay [12] shares this target. The assay can be described thus: Biacore.
Assay [13] addresses T8, cynomolgus monkey soluble FLT3L (cynomolgus monkey).
T8 construct: extracellular domain; also called cyno sFLT3L; cyno FLT3L
The assay can be described thus: Biacore.

Positions count from the first letter of the chain named.

B1: CAT8 antibody (IgG1 TM format) (antibody, V domains shown)
VH: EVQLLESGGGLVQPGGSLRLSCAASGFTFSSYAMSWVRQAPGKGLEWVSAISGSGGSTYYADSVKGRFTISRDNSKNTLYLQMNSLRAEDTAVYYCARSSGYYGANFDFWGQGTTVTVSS
VL: QSVLTQPPSASGTPGQRVAISCSGSSSNIGSGYVYWYQQVPGTAPTLLIHRNNQRPSGVPDRFSGSKSGTSASLAISGLRSEDEADYYCAAWDDSLSGYVFGTGTKVTV
notes: Human antibody from phage display
B1: the binding result with mouse FLT3L on CHO cells [1] is “no binding (tested: x = -7.2 (x axis without title or unit))”; in assay [4], “no binding (tested: about 0.3 uM)”; in [6] it was “no binding (tested: about 0.3 uM)”. Also, the “IC50 (nM), inhibition of FLT3 downregulation on RS4;11 cells” value (shortened to “IC50 (nM), inhibition”) in assay [2] was 43.5 nM; in assay [3] it was 3000 nM. The values for the concentration giving a half-maximal response (EC50) in assay [5] and in assay [7] were 0.08 nM and 9 nM, respectively. The “maximum occupancy (% relative to FLT3-Fc)” value in assay [5] amounted to 60%; in [7] it was 32%.

B2: CAT8 Fab (Fab, V domains shown)
VH: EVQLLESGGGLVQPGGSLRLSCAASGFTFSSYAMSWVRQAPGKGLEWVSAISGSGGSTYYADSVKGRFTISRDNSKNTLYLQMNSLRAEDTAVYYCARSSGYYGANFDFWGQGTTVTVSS
VL: B1 VL
As to B2, the Kd in assay [8] was 8.85 nM. In assay [9], the koff was 0.00556 s⁻¹ and the association rate constant (kon) worked out at 628000 M⁻¹ s⁻¹.

B3: Dyax5 antibody (IgG1 TM format) (antibody, V domains shown)
VH: EVQLLESGGGLVQPGGSLRLSCAASGFTFSSYIMVWVRQAPGKGLEWVSSIYSSGGSTSYADSVKGRFTISRDNSKNTLYLQMNSLRAEDTAVYYCTRYSRWFGQLGFYSHYAMDVWSQGTTVTVSS
VL: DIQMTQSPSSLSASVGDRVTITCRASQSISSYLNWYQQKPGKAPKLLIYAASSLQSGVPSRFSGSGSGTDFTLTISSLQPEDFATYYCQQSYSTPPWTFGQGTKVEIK
For B3, the “IC50 (nM), inhibition” value in assay [2] was found to be 245 nM; in the assay with mouse soluble FLT3L it was 354 nM; in [3], 6020 nM. The concentration for a half-maximal effect (EC50) turned out to be 0.11 nM with mouse FLT3L on CHO cells [10] and 0.66 nM in assay [5]. Moreover, the “maximum occupancy (% relative to FLT3-Fc)” value came to 51% in the assay with mouse FLT3L on CHO cells [10] and 28% in [5]. Besides, the “IC50 (nM) against 0.476 nM FLT3L, ERK phosphorylation in CD133+ stem cells” value in assay [11] was 25 nM.

B4: Dyax5 Fab (Fab, V domains shown)
VH: B3 VH
VL: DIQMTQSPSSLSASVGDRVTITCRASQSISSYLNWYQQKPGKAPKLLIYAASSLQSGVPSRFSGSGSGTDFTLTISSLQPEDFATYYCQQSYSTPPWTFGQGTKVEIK
B4: the dissociation constant Kd in [8] is 22 nM. In addition, in assay [9], the koff amounted to 0.00501 s⁻¹ and the kon stood at 228000 M⁻¹ s⁻¹.

B5: AM40 (MEDI1116) antibody (antibody, V domains shown)
VH: QVQLVQSGAEVKKPGSSVKVSCKASGGTFSSYALSWVRQAPGQGLEWMGTRPPTSRTASYAQKFQGRVTITVDESTSTGYMELSSLRSEDTAVYYCASNDFVYGSYRFWGQGTTVTVSS
VL: NFMLTQPHSVSESPGKTVTISCTRTSGNIAGYFVQWYQQRPGSSPTTVIYEDYQRPSGVPDRFSGSIDSSSNSASLTISGLKTEDEADYYCQSYDDYRRAAFGGGTKLTVLG
Consider B5, for which, in assay [12], the dissociation constant Kd turned out to be 0.17 nM, the koff is 0.00018 s⁻¹ and the on-rate (kon) is 1.09e+06 M⁻¹ s⁻¹. Further, in [13], the affinity, expressed as Kd, was 0.063 nM; the off-rate (koff) worked out at 0.00017 s⁻¹; the kon was determined as 2.66e+06 M⁻¹ s⁻¹.

B6: SC4017 antibody (antibody, V domains shown)
VH: B5 VH
VL: B5 VL with N28W
For the molecule B6, in assay [12], the dissociation constant Kd was found to be 0.037 nM, the off-rate (koff) was determined as 5e-05 s⁻¹ and the on-rate constant (kon) is 1.45e+06 M⁻¹ s⁻¹. For the same molecule, in assay [13], binding was characterised by a dissociation constant (Kd) of 0.0088 nM, the koff was 5e-05 s⁻¹ and the association rate constant (kon) was determined as 5.84e+06 M⁻¹ s⁻¹.

B7: CAT26 antibody (IgG1 TM format) (antibody, V domains shown)
VH: EVQLLESGGGLVQPGGSLRLSCAASGFTFSSYAVSWVRQAPGKGLEWVSAISGSGGSTYYADSVKGRFTISRDNSKNTLYLQMNSLRAEDTAVYYCVKDAYGSSWYFYYFDYWGQGTMVTVSS
VL: QSVLTQPPSASGTPGQRVTISCSGSSSNIGINPVNWYQQLPGTAPKVLIYSDKYRPSGVADRFSGSKSGTSASLAISGLQSEDEADYFCAAWDDSLNGRVFGTGTKLTVL
In the case of B7, the binding result with mouse FLT3L on CHO cells [1] is listed as “no binding (tested: x = -7.2 (x axis without title or unit))”; in assay [4] it was “no binding (tested: about 0.3 uM)”; in assay [6], “no binding (tested: about 0.3 uM)”. Besides, the “IC50 (nM), inhibition” value is 618 nM in assay [2] and 2580 nM in assay [3]. The figures for the half-maximal effective concentration (EC50) in [5] and in assay [7] were 0.19 nM and 1.1 nM, respectively. Further, the figures for the “maximum occupancy (% relative to FLT3-Fc)” value in assay [5] and in [7] were 46% and 96%, respectively.

B8: CAT26 Fab (Fab, V domains shown)
VH: B7 VH
VL: B7 VL
Regarding B8, in assay [8], the Kd was 4.37 nM. In addition, in assay [9], the koff was determined as 0.00084 s⁻¹ and the kon turned out to be 191000 M⁻¹ s⁻¹.

B9: Dyax3 Fab (Fab, V domains shown)
VH: EVQLLESGGGLVQPGGSLRLSCAASGFTFSMYEMRWVRQAPGKGLEWVSVIPSGGKTFYADSVKGRFTISRDNSKNTLYLQMNSLRAEDTAVYYCARYSRWFGQLGFYSHYAMDVWSQGTTVTVSS
VL: DIQMTQSPSSLSASVGDRVAITCRASQSIDTYLNWYQQKPGKAPKLLIYAASKLEDGVPSRFSGSGTGTDFTLTIRSLQPEDFASYFCQQSYSSPGITFGPGTKVEIK
Take B9: the dissociation constant Kd in assay [8] is 18.7 nM. Besides, in assay [9], the off-rate (koff) was 0.00123 s⁻¹ and the kon came to 66000 M⁻¹ s⁻¹.

A word on the EC50: it is the midpoint of the concentration-response curve. By Kd is commonly meant the free concentration of one partner at which half of the binding sites on the other are occupied at equilibrium, for simple one-to-one binding. In general, koff refers to the rate constant with which the complex falls apart. The term kon denotes a measure of how fast the partners come together.

Values taken from US20230056815A1 (VIELA BIO, published 2023).
